Measurements reported in PMC10183829 (2023).
No end group written: not given here. TAMRA = 5(6)-carboxytetramethylrhodamine

B1: UBA5 LIR (peptide)
chain: GPLHDDNEWNISVVDD
B2: HsC53 wt (purified) (natural protein)
chain: MEDHQHVPIDIQTSKLLDWLVDRRHCSLKWQSLVLTIREKINAAIQDMPESEEIAQLLSGSYIHYFHCLRILDLLKGTEASTKNIFGRYSSQRMKDWQEIIALYEKDNTYLVELSSLLVRNVNYEIPSLKKQIAKCQQLQQEYSRKEEECQAGAAEMREQFYHSCKQYGITGENVRGELLALVKDLPSQLAEIGAAAQQSLGEAIDVYQASVGFVCESPTEQVLPMLRFVQKRGNSTVYEWRTGTEPSVVERPHLEELPEQVAEDAIDWGDFGVEAVSEGTDSGISAEAAGIDWGIFPESDSKDPGGDGIDWGDDAVALQITVLEAGTQAPEGVARGPDALTLLEYTETRNQFLDELMELEIFLAQRAVELSEEADVLSVSQFQLAPAILQGQTKEKMVTMVSVLEDLIGKLTSLQLQHLFMILASPRYVDRVTEFLQQKLKQSQLLALKKELMVQKQQEALEEQAALEPKLDLLLEKTKELQKLIEADISKRYSGRPVNLMGTSL
B3: peptide derived from sAIM2 (AtC53 IDR) (peptide)
chain: {TAMRA}-ETPEIDWDVSMVEEV
B4: peptide derived from sAIM1 (AtC53 IDR) (peptide)
chain: {TAMRA}-AADSIDWDITVET
B5: peptide derived from the cAIM of the AtC53 IDR (peptide)
chain: {TAMRA}-DLGSYEIVNASDI
B6: ATG8A (purified) (natural protein)
chain: MAKSSFKISNPLEARMSESSRIREKYPDRIPVIVEKAGQSDVPDIDKKKYLVPADLTVGQFVYVVRKRIKLGAEKAIFVFVKNTLPPTAALMSAIYEEHKDEDGFLYMTYSGENTFG

Legend:
[1] = molecular target: HsUFM1 (purified) (human, UniProt P61960 1-85); experiment: ITC
HsUFM1 (purified), sequence (P61960 whole entry): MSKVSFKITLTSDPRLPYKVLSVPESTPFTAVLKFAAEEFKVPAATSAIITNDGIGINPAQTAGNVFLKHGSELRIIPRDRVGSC

[2] = molecular target: GABARAP (purified) (human, UniProt O95166 3-116); experiment: ITC
GABARAP (purified), sequence (O95166 3-116): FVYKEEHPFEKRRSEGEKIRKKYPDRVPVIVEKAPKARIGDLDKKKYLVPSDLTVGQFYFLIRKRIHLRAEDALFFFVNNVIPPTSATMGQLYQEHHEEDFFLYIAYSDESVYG

[3] = molecular target: B6; experiment: FP
[4] = molecular target: cAIM mut; experiment: FP
[5] = molecular target: sAIM3; experiment: FP

For B1, the Kd [1] was 7.51 µM.

B2 was tested, and the Kd [2] was 20.9 µM.

For B3, the Kd [3] was 56.8 µM.

B4 showed a Kd [3] of 97.6 µM.

In the case of B5, the Kd [3] is reported as 62.5 µM.

Work on B6 yielded a Kd [4] of 94.3 µM and a Kd [5] of 176 µM.
